From publication PMC9485058, “Glycosylation of a key cubilin Asn residue results in reduced binding to albumin” (The Journal of Biological Chemistry, 2022)
Several values for one entry are separate records, joined by “and”; a condition that tells them apart may be missing. Identical values can stand only once. Blank lines part the entries; values can stand above or below the molecule they belong to.

B2: rat serum albumin (RSA) (natural protein, UniProt P02770 25-608, looked up)
chain: EAHKSEIAHRFKDLGEQHFKGLVLIAFSQYLQKCPYEEHIKLVQEVTDFAKTCVADENAENCDKSIHTLFGDKLCAIPKLRDNYGELADCCAKQEPERNECFLQHKDDNPNLPPFQRPEAEAMCTSFQENPTSFLGHYLHEVARRHPYFYAPELLYYAEKYNEVLTQCCTESDKAACLTPKLDAVKEKALVAAVRQRMKCSSMQRFGERAFKAWAVARMSQRFPNAEFAEITKLATDVTKINKECCHGDLLECADDRAELAKYMCENQATISSKLQACCDKPVLQKSQCLAEIEHDNIPADLPSIAADFVEDKEVCKNYAEAKDVFLGTFLYEYSRRHPDYSVSLLLRLAKKYEATLEKCCAEGDPPACYGTVLAEFQPLVEEPKNLVKTNCELYEKLGEYGFQNAVLVRYTQKAPQVSTPTLVEAARNLGRVGTKCCTLPEAQRLPCVEDYLSAILNRLCVLHEKTPVSEKVTKCCSGSLVERRPCFSALTVDETYVPKEFKAETFTFHSDICTLPDKEKQIKKQTALAELVKHKPKATEDQLKTVMGDFAQFVDKCCKAADKDNCFATEGPNLVARSKEALA
modifications: in MST: Texas Red-X succinimidyl ester or Oregon Green 488-X succinimidyl ester conjugate, dye:protein molar ratio 1:1
notes: serum albumin, rat, UniprotKB P02770; Labelled with dye in MST; also called rat albumin; source: bought: Sigma

Tests used:
[1] = biological target: Albumin (Rattus norvegicus) (UniProt P02770); conditions: cited from earlier work
rat serum albumin (RSA) [2] = biological target: B2; assay: MST; Monolith NT.115, standard capillaries, 25 °C, 67 mM NaPO4, 150 mM NaCl, 0.05% Tween 20, pH 7.4 + 1 mM CaCl2; albumin labelled with a fluorescent dye (1:1), cubilin domain unlabelled
[3] = biological target: RSA 500 mM glucose (RSA500G) (rat) (UniProt P02770); assay: as above
[4] = biological target: RSA 200 mM glucose (RSA200G) (rat) (UniProt P02770); assay: as above
[5] = biological target: RSA 1 mM methylglyoxal (RSA1MGO) (rat) (UniProt P02770); assay: as above
[6] = biological target: RSA 20 mM glucose (RSA20G) (rat) (UniProt P02770); assay: as above
[7] = biological target: RSA 5 mM methylglyoxal (RSA5MGO) (rat) (UniProt P02770); assay: as above
[8] = biological target: the molecule itself; assay: SEC-MALS; Agilent Infinity II HPLC with Wyatt DAWN HELEOS II and Optilab T-rEX, 25 °C, running buffer with 2% v/v glycerol; cubilin domains not treated with any glycosidase
rat serum albumin (RSA) [9] = biological target: B2; assay: MST; as a1 but at pH 6.0; albumin labelled
rat serum albumin (RSA) [10] = biological target: B2; assay: MST; as a1 but at pH 5.0 (buffer not told); albumin labelled
rabbit albumin = biological target: T1, rabbit albumin (rabbit, UniProt P49065 25-608, fluorescent dye conjugate for MST (Texas Red-X or Oregon Green 488-X succinimidyl ester)); assay: MST; Monolith NT.115, standard capillaries, 25 °C, 67 mM NaPO4, 150 mM NaCl, 0.05% Tween 20, pH 7.4 + 1 mM CaCl2; albumin labelled with a fluorescent dye (1:1), cubilin domain unlabelled; conditions: both partners purified
T1 construct: albumin, rabbit
T1 sequence (P49065 25-608): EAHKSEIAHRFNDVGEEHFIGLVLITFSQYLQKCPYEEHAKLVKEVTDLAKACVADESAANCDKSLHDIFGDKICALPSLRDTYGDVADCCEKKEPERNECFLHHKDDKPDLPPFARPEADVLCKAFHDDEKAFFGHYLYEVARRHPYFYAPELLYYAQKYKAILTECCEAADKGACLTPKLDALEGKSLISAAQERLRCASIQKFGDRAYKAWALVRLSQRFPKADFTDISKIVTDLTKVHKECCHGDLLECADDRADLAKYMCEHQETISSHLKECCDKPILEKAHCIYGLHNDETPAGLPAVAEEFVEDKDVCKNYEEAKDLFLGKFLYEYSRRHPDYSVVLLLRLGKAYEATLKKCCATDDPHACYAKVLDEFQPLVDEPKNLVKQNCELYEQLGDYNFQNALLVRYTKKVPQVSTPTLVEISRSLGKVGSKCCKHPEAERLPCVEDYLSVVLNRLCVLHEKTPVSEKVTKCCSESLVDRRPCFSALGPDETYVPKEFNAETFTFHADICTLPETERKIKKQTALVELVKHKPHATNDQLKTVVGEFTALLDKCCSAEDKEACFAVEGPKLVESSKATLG

bovine albumin = biological target: T2, bovine albumin (bovine, UniProt P02769 25-607, fluorescent dye conjugate for MST (Texas Red-X or Oregon Green 488-X succinimidyl ester)); assay: as above; conditions: both partners purified
T2 construct: albumin, bovine
T2 sequence (P02769 25-607): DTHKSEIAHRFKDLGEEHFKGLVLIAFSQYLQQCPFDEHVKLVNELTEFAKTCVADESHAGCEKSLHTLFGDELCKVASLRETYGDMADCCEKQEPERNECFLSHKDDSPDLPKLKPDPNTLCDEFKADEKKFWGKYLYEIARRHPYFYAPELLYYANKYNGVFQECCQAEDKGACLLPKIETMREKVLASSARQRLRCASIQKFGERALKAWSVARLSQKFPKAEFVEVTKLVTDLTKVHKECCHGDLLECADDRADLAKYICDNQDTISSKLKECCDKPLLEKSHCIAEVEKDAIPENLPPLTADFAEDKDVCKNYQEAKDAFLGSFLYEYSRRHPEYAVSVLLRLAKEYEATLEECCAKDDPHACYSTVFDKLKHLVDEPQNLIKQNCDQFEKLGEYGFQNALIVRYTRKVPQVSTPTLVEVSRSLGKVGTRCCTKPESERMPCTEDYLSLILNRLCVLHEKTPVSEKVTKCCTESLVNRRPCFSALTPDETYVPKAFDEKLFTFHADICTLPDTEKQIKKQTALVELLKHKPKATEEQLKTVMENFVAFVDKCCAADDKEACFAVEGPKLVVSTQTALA

human albumin = biological target: T3, human albumin (human, UniProt P02768 25-609, fluorescent dye conjugate for MST (Texas Red-X or Oregon Green 488-X succinimidyl ester)); assay: as above; conditions: both partners purified
T3 construct: albumin, human
T3 sequence (P02768 25-609): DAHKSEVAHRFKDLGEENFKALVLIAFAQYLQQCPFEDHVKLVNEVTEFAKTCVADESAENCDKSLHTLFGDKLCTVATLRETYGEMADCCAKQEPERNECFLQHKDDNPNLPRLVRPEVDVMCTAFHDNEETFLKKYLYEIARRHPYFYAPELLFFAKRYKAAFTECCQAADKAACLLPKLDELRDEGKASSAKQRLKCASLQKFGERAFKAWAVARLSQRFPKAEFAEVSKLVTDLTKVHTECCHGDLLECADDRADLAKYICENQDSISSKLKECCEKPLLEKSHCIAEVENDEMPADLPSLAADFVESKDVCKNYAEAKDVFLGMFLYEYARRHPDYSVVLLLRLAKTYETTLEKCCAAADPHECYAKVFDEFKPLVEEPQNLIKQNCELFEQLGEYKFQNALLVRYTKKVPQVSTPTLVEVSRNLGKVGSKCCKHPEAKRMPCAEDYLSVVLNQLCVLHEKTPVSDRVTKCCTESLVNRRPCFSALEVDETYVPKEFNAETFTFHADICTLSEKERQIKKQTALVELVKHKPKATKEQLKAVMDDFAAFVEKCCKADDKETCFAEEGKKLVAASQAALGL

[11] = biological target: the molecule itself; assay: SEC-MALS; data not shown; CUB7,8N1285P

Molecule: Cubilin (from UniProt O70244)
Kd [1]: 0.63 µM

B1: CUB6–8 (cubilin 6–8 domain), glycosylated, not treated with PNGaseF (domain or fragment)
chain: CLYDYTDNFGMLSSPNFPNNYPSNWECIYRITVGLNQQIALHFTDFTLEDYFGSQCVDFVEIRDGGYETSPLVGIYCGSVLPPTIISHSNKLWLKFKSDAALTAKGFSAYWDGSSTGCGGNLTTPTGVLTSPNYPMPYYHSSECYWRLEASHGSPFELEFQDFHLEHHPSCSLDYLAVFDGPTTNSRLIDKLCGDTTPAPIRSNKDVVLLKLRTDAGQQGRGFEINFRQRCDNVVIVNKTSGILESINYPNPYDKNQRCNWTIQATTGNTVNYTFLGFDVESYMNCSTDYVELYDGPQWMGRYCGNNMPPPGATTGSQLHVLFHTDGINSGEKGFKMQWFTHG
modifications: N-glycans as made in 293F cells
Kd (rat serum albumin (RSA) [2]; both partners purified): > 100 µM

Molecule: B2
stoichiometry N [8]: 2

B4: CUB7,8-N1285P, not treated with PNGaseF (domain or fragment, rat, UniProt O70244 1165-1389, looked up)
chain: CGGNLTTPTGVLTSPNYPMPYYHSSECYWRLEASHGSPFELEFQDFHLEHHPSCSLDYLAVFDGPTTNSRLIDKLCGDTTPAPIRSNKDVVLLKLRTDAGQQGRGFEINFRQRCDNVVIVPKTSGILESINYPNPYDKNQRCNWTIQATTGNTVNYTFLGFDVESYMNCSTDYVELYDGPQWMGRYCGNNMPPPGATTGSQLHVLFHTDGINSGEKGFKMQWFTH
modifications: N-glycans as made in 293F cells (N1168, N1303, N1319 by MS, Table 2)
notes: also called CUB7,8 N1285P mutant; source: 293F cells, purified as the other cubilin proteins (Ni-NTA Superflow, gel filtration)
stoichiometry N [11]: 2

The remaining lines, values ahead:

Kd (rat serum albumin (RSA) [2]): > 100 µM
Molecule: CUB7,8 (cubilin 7,8 domain), glycosylated, not treated with PNGaseF (from UniProt O70244 1165-1389) (domain or fragment)

Kd (rat serum albumin (RSA) [2]): 500 to 1000 µM | Kd (rat serum albumin (RSA) [2]; record 2): 0.5 to 1 µM and 1 µM | Kd [3]: > 100 µM | Kd [4]: 9.4 µM | Kd [5]: 28 µM | Kd [6]: 2000 µM | Kd [7]: > 100 µM
Molecule: PNGaseF-deglycosylated CUB6–8 (domain or fragment)

Kd (rat serum albumin (RSA) [9]): 1700 µM | Kd (rat serum albumin (RSA) [10]): 1400 µM | Kd (rabbit albumin): 0.9 to 1.4 µM | Kd (bovine albumin): > 100 µM | Kd (human albumin): 0.95 to 1.5 µM | Kd (rat serum albumin (RSA) [2]): 0.5 to 1.2 µM | Kd (rat serum albumin (RSA) [2]; record 2): 500 to 1000 µM | Kd [3]: > 100 µM | Kd [4]: 25.6 µM | Kd [5]: 35 µM | Kd [6]: 2500 µM | Kd [7]: > 100 µM
B3: PNGaseF-deglycosylated CUB7,8 (domain or fragment, rat, UniProt O70244 1165-1389, looked up)
chain: CGGNLTTPTGVLTSPNYPMPYYHSSECYWRLEASHGSPFELEFQDFHLEHHPSCSLDYLAVFDGPTTNSRLIDKLCGDTTPAPIRSNKDVVLLKLRTDAGQQGRGFEINFRQRCDNVVIVNKTSGILESINYPNPYDKNQRCNWTIQATTGNTVNYTFLGFDVESYMNCSTDYVELYDGPQWMGRYCGNNMPPPGATTGSQLHVLFHTDGINSGEKGFKMQWFTH
modifications: N-glycans removed with PNGaseF
notes: cubilin, rat, CUB7 (1165–1277) and CUB8 (1278–1389) of full length cubilin UniProtKB O70244; also called CUB7,8 after PNGaseF treatment (+); His tagged CUB7,8 domain; not shown: His6, C-terminal, kept
